# Measurements published in patent US20110177084A1 (RIKEN, published 2011).
# T1: High mobility group box 1 (HMGB1) (UniProt P63158 1-215)
# T1 sequence (looked up): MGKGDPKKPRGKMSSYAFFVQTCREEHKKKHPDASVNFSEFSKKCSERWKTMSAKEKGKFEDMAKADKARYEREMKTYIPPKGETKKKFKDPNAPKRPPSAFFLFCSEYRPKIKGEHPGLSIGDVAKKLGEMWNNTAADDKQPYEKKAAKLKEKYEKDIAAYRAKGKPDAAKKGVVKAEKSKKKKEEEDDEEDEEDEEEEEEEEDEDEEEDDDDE
# T2: mouse Mincle (Macrophage inducible C-type lectin) (mouse, UniProt Q9R0Q8 1-214)
# T2 construct: whole, on cells; Expressed from cDNA in 293T, 2B4 and RBL-2H3 cells, or endogenous in mouse peritoneal macrophages; also called Clec4e; Clecsf9
# T2 sequence (looked up): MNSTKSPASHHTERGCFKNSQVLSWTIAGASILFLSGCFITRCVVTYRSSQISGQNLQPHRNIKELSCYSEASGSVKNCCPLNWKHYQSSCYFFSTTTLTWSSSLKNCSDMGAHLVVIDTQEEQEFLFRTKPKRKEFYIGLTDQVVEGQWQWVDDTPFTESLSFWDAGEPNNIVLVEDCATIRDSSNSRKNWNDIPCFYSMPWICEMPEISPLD
# B1: spliceosome-binding protein 130 (SAP130) from 2B4 cell lysate (ligand, UniProt Q921M3 1-1217, looked up)
# chain: MFLYNLTLQRATGISFAIHGNFSGTKQQEIVVSRGKILELLRPDPNTGKVHTLLTVEVFGVIRSLMAFRLTGGTKDYIVVGSDSGRIVILEYQPSKNMFEKIHQETFGKSGCRRIVPGQFLAVDPKGRAVMISAIEKQKLVYILNRDAAARLTISSPLEAHKANTLVYHVVGVDVGFENPMFACLEMDYEEADNDPTGEAAANTQQTLTFYELDLGLNHVVRKYSEPLEEHGNFLITVPGGSDGPSGVLICSENYITYKNFGDQPDIRCPIPRRRNDLDDPERGMIFVCSATHKTKSMFFFLAQTEQGDIFKITLETDEDMVTEIRLKYFDTVPVAAAMCVLKTGFLFVASEFGNHYLYQIAHLGDDDEEPEFSSAMPLEEGDTFFFQPRPLKNLVLVDELDSLSPILFCQIADLANEDTPQLYVACGRGPRSSLRVLRHGLEVSEMAVSELPGNPNAVWTVRRHIEDEFDAYIIVSFVNATLVLSIGETVEEVTDSGFLGTTPTLSCSLLGDDALVQVYPDGIRHIRADKRVNEWKTPGKKTIVKCAVNQRQVVIALTGGELVYFEMDPSGQLNEYTERKEMSADVVCMSLANVPPGEQRSRFLAVGLVDNTVRIISLDPSDCLQPLSMQALPAQPESLCIVEMGGTEKQDELGERGSIGFLYLNIGLQNGVLLRTVLDPVTGDLSDTRTRYLGSRPVKLFRVRMQGQEAVLAMSSRSWLSYSYQSRFHLTPLSYETLEFASGFASEQCPEGIVAISTNTLRILALEKLGAVFNQVAFPLQYTPRKFVIHPESNNLIIIETDHNAYTEATKAQRKQQMAEEMVEAAGEDERELAAEMAAAFLNENLPESIFGAPKAGNGQWASVIRVMNPIQGNTLDLVQLEQNEAAFSVAVCRFSNTGEDWYVLVGVAKDLILSPRSVAGGFVYTYKLVNNGEKLEFLHKTPVEEVPAAIAPFQGRVLIGVGKLLRVYDLGKKKLLRKCENKHIANYISGIQTIGHRVIVSDVQESFIWVRYKRNENQLIIFADDTYPRWVTTASLLDYDTVAGADKFGNICVVRLPPNTNDEVDEDPTGNKALWDRGLLNGASQKAEVIMNYHVGETVLSLQKTTLIPGGSESLVYTTLSGGIGILVPFTSHEDHDFFQHVEMHLRSEHPPLCGRDHLSFRSYYFPVKNVIDGDLCEQFNSMEPNKQKNVSEELDRTPPEVSKKLEDIRTRYAF
# notes: also called Sf3b3; 130-kD protein
# B2: hIgG1 Fc-Mincle fusion protein (Ig-Mincle) (Fc fusion, mouse, UniProt Q9R0Q8 46-214, looked up)
# chain: TYRSSQISGQNLQPHRNIKELSCYSEASGSVKNCCPLNWKHYQSSCYFFSTTTLTWSSSLKNCSDMGAHLVVIDTQEEQEFLFRTKPKRKEFYIGLTDQVVEGQWQWVDDTPFTESLSFWDAGEPNNIVLVEDCATIRDSSNSRKNWNDIPCFYSMPWICEMPEISPLD
# notes: range 46-214; also called soluble Mincle protein; not shown: human IgG1 Fc region (hIgG Fc lacking a termination codon, from pME18S-SLAMsig-hIgG Fc)
# B3: endogenous FcRγ of mouse peritoneal macrophages (receptor, UniProt P20491 19-86, looked up)
# chain: LGEPQLCYILDAVLFLYGIVLTLLYCRLKIQVRKAAIASREKADAVYTGLNTRSQETYETLKHEKPPQ
# notes: whole, on cells; Co-immunoprecipitated from the lysate of thioglycolate-induced, LPS-stimulated peritoneal macrophages
# What was measured:
# hIgG1 Fc (Ig) = molecular target: T3, hIgG1 Fc (Ig) (human, UniProt P01857-1 99-330 = IgG part, limits assumed); assay: pull-down from 2B4 dead cell lysate with Ig on Protein G Sepharose, silver staining, no Ca2+
# T3 construct: domain: hIgG1 Fc; Control for Ig-Mincle; also called control Ig
# From the text: A 2B4 dead cell lysate was pulled down using the indicated Sepharose beads and blotted with anti-SAP130, anti-DDB1, anti-HMGB1 and anti-hIgG-HRP.
# [1] = molecular target: T1, High mobility group box 1 (HMGB1); assay: pull-down from 2B4 cell lysate, immunoblot with anti-HMGB1
# From the text: A 2B4 dead cell lysate was pulled down using the indicated Sepharose beads and blotted with anti-SAP130, anti-DDB1, anti-HMGB1 and anti-hIgG-HRP. […] Live (L) or dead (D) 2B4 cells were pulled down using the indicated beads and blotted with the indicated antibodies.
# [2] = molecular target: damaged-DNA binding protein 1 (DDB1) (UniProt Q3U1J4 2-1140); assay: pull-down from 2B4 dead cell lysate, immunoblot with anti-DDB1
# From the text: The cells were also stained with Annexin V-FITC (AnV) and propidium iodide (PI). […] A 2B4 dead cell lysate was pulled down using the indicated Sepharose beads and blotted with anti-SAP130, anti-DDB1, anti-HMGB1 and anti-hIgG-HRP. […] Live (L) or dead (D) 2B4 cells were pulled down using the indicated beads and blotted with the indicated antibodies.
# [3] = molecular target: T2, mouse Mincle (Macrophage inducible …); assay: immunoprecipitation with anti-Mincle polyclonal antibody from macrophage lysate, anti-FcRγ blot
# Chain of damaged-DNA binding protein 1 (DDB1) (Q3U1J4 2-1140 limits assumed): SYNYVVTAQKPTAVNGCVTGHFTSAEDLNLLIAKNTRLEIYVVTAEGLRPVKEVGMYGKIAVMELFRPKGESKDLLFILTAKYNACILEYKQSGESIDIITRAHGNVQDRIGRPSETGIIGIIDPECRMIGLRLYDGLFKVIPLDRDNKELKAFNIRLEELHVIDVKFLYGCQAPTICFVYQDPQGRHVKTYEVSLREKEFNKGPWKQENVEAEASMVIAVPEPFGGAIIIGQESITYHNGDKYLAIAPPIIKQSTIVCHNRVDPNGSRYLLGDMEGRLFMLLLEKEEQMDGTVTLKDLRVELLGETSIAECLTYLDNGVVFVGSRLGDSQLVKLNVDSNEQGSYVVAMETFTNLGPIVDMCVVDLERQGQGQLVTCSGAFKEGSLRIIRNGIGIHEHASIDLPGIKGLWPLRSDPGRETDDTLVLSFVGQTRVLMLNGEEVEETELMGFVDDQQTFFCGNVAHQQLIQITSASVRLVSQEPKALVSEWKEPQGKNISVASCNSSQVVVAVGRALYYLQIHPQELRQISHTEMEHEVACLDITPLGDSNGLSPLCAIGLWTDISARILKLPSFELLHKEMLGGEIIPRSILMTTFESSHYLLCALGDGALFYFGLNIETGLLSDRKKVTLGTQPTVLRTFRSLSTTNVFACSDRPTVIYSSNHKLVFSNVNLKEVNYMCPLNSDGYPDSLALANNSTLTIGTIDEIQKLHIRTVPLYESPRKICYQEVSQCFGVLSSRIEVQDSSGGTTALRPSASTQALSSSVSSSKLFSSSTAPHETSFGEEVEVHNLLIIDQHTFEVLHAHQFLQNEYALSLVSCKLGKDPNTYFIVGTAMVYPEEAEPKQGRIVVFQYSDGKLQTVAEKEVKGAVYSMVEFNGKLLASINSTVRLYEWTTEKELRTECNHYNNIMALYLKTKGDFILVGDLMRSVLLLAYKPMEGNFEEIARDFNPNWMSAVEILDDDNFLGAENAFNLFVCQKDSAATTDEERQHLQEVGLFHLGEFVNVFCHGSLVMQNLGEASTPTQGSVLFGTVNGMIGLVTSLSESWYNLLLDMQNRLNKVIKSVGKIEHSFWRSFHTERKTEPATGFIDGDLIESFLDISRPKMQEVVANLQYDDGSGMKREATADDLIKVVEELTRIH
binder,measurement,setting,value
B1,binding result,hIgG1 Fc (Ig),no binding
B2,binding result,[1],no binding
same,binding result,[2],no binding
B3,binding result,[3],binds
